# In patent US20190100588A1 (published 2019):
# Where a chain is given by its changes, count along the chain named.
# T1: Peptide 2a
# T1 peptide: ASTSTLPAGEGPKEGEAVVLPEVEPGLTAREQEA
# T2: recombinant CD138 extracellular domain (soluble CD138) (UniProt P18827 23-250)
# T2 chain: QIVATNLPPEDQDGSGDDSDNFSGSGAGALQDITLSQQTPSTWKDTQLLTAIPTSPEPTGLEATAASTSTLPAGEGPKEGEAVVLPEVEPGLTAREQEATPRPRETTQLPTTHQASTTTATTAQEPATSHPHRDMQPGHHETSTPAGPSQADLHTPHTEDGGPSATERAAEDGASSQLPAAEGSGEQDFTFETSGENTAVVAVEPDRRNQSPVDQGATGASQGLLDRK
# T3: Pep6
# T3 peptide: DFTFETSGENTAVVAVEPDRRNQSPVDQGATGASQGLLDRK
# B1: antibody 1610 (antibody, V domains shown)
# VH: QVQLHQPGTSLVKPGASVKLSCKASGYNFSSYYMHWVKQRPGQGLEWIGTIHPSDSTTNCNQKFKGKATLTVDKSSRTAYMQLNSLTFEDSAVYYCANFVYWGQGTSVTVSS
# VL: DIVITQDELSNPVTSGDSVSISCRSSKSLLYKDGKTYLNWFLQRPGQSPQLLIYVVSTRASGVSDRFSGSGSGTDFTLEISRVKAEDVGVYYCQQLVEYPYTFGGGTKLEIK
# B2: antibody 2510 (antibody, V domains shown)
# VH: B1 VH with C60Y
# VL: B1 VL
# B3: antibody 2610 (antibody, V domains shown)
# VH: B1 VH with N28S
# VL: B1 VL
# B4: antibody 2810 (antibody, V domains shown)
# VH: B1 VH with N28S, C60Y
# VL: B1 VL
# Assays:
# Test in all cases: ELISA
# Peptide 2a = biological target: T1, Peptide 2a
# [1] = biological target: T2, recombinant CD138 extracellular domain …
# Pep6 = biological target: T3, Pep6
Binder,EC50 (Peptide 2a),EC50 [1],EC50 (Pep6)
B1,3.9 ng/mL,2.7 ng/mL,12.3 ng/mL
B2,4.6 ng/mL,4.9 ng/mL,8.9 ng/mL
B3,3.8 ng/mL,7 ng/mL,4.9 ng/mL
B4,2.8 ng/mL,5.3 ng/mL,3.2 ng/mL
